Measurements: PMC4559223 (Journal of molecular biology, 2008)

B1: mouse GATA3 double zinc finger fragment (amino acids 260-370) (domain or fragment)
chain: not shown
B2: mouse GATA3 C-terminal zinc finger (amino acid residues 308-370) (domain or fragment, UniProt P23772 308-370, looked up)
chain: SAARRAGTSCANCQTTTTTLWRRNANGDPVCNACGLYYKLHNINRPLTMKKEGIQTRNRKMSS

Experiments:
native gel or EMSA = molecular target: the molecule itself; assay: native gel or EMSA
crystal structure = molecular target: the molecule itself; assay: crystal structure

| Protein | binding result (native gel or EMSA) | binding result (crystal structure) |
| --- | --- | --- |
| B1 | binds |  |
| B2 |  | binds |
